Source: IntAct's records for PubMed 11779503

B1: Mothers against decapentaplegic homolog 2 (Homo sapiens), Q15796 (parent)
chain: MSSILPFTPPVVKRLLGWKKSAGGSGGAGGGEQNGQEEKWCEKAVKSLVKKLKKTGRLDELEKAITTQNCNTKCVTIPSTCSEIWGLSTPNTIDQWDTTGLYSFSEQTRSLDGRLQVSHRKGLPHVIYCRLWRWPDLHSHHELKAIENCEYAFNLKKDEVCVNPYHYQRVETPVLPPVLVPRHTEILTELPPLDDYTHSIPENTNFPAGIEPQSNYIPETPPPGYISEDGETSDQQLNQSMDTGSPAELSPTTLSPVNHSLDLQPVTYSEPAFWCSIAYYELNQRVGETFHASQPSLTVDGFTDPSNSERFCLGLLSNVNRNATVEMTRRHIGRGVRLYYIGGEVFAECLSDSAIFVQSPNCNQRYGWHPATVCKIPPGCNLKIFNNQEFAALLAQSVNQGFEAVYQLTRMCTIRMSFVKGWGAEYRRQTVTSTPCWIELHLNGPLQWLDKVLTQMGSPSVRCSSMS
B2: Mothers against decapentaplegic homolog 4 (Homo sapiens), Q13485 (parent)
chain: MDNMSITNTPTSNDACLSIVHSLMCHRQGGESETFAKRAIESLVKKLKEKKDELDSLITAITTNGAHPSKCVTIQRTLDGRLQVAGRKGFPHVIYARLWRWPDLHKNELKHVKYCQYAFDLKCDSVCVNPYHYERVVSPGIDLSGLTLQSNAPSSMMVKDEYVHDFEGQPSLSTEGHSIQTIQHPPSNRASTETYSTPALLAPSESNATSTANFPNIPVASTSQPASILGGSHSEGLLQIASGPQPGQQQNGFTGQPATYHHNSTTTWTGSRTAPYTPNLPHHQNGHLQHHPPMPPHPGHYWPVHNELAFQPPISNHPAPEYWCSIAYFEMDVQVGETFKVPSSCPIVTVDGYVDPSGGDRFCLGQLSNVHRTEAIERARLHIGKGVQLECKGEGDVWVRCLSDHAVFVQSYYLDREAGRAPGDAVHKIYPSAYIKVFDLRQCHRQMQQQAATAQAAAAAQAAAVAGNIPGPGSVGGIAPAISLSAAAGIGVDDLRRLCILRMSFVKGWGPDYPRQSIKETPCWIEIHLHRALQLLDEVLHTMPIADPQPLD

Variants of: B1
Conditions: with smad4_human SMAD4, Q13485

effect of a mutation on the interaction	Variant
with no effect	R310H;K420A
with no effect	W368H
with no effect	Y406H
with no effect	R310H;K375A
with no effect	K375H;K420A
with no effect	K375A
with no effect	D300H;R310H
with no effect	N387P
with no effect	Y426A
decreasing interaction strength	D300H
with no effect	V319D
with no effect	R428A
disrupting interaction strength	D450H
with no effect	K420A
with no effect	D300H;K375A
with no effect	D300H;K420A
decreasing interaction strength	R310H

Variants of: B2
Conditions: with smad2_human SMAD2, Q15796

effect of a mutation on the interaction	Variant
decreasing interaction strength	K428A
with no effect	D493H
with no effect	R420H
with no effect	R441P
disrupting interaction strength	R361H
with no effect	V370D
disrupting interaction strength	D351H
with no effect	Y513A
decreasing interaction strength	K507A
decreasing interaction strength	R515A
with no effect	D537H
